Assay results reported in US7329728.

What was measured:
Assay in all cases: cell-based or functional assay
[1] = biological target: Cf2-PBD-VP64 (human) (UniProt P06401)
[2] = biological target: ER-KRAB (mouse; human) (UniProt P19785)
[3] = biological target: ER-VP64 (mouse) (UniProt P19785)
Chain of ER-VP64 (mouse) (P19785 282-599 G525R): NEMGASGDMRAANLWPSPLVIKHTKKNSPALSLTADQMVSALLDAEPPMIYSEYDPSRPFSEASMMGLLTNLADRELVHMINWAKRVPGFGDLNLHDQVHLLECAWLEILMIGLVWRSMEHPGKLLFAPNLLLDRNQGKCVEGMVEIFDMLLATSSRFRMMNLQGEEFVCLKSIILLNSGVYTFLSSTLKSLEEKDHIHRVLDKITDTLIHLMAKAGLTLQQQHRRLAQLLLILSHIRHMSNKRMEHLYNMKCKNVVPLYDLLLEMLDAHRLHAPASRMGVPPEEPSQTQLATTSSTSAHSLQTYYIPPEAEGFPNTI

Chain of Cf2-PBD-VP64 (human) (P06401 640-914): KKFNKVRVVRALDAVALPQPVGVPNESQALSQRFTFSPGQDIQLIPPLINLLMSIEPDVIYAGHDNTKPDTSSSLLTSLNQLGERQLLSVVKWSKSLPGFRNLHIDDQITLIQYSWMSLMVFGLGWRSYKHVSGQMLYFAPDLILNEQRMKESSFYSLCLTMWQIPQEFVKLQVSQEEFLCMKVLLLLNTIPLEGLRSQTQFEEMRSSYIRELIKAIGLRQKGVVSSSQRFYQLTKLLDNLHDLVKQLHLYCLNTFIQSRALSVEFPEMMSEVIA
Chain of C7-PBD-VP64 (P06401 640-914): as above
Chain of ER-KRAB (mouse; human) (P19785 other isoform, or with tags, fused parts or gaps): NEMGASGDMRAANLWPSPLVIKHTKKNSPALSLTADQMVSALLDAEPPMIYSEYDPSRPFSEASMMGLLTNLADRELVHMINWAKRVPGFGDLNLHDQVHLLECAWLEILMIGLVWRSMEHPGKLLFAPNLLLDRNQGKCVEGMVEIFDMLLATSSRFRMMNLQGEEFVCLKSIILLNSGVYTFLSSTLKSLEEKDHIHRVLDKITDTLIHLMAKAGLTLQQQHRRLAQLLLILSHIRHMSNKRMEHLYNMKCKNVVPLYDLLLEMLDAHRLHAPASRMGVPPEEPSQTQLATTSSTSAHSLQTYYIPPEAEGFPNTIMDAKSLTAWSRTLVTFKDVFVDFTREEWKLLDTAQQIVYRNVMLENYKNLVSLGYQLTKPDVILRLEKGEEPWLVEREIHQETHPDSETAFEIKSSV

Substance | ligand-dependent change in transcription of a C7-Cf2 TATA luciferase reporter [1] [fold] | tamoxifen-dependent repression of the erbB-2 promoter (luciferase) [2] [fold] | erbB-2 promoter luciferase activity in HeLa cells, on addition of Tamoxifen [3] [fold]
C7-PBD-VP64 (from UniProt P06401 640-914) | 2 |  | 
E2C-ER (from UniProt P19785 282-599) |  | 2.9 | 3
